Assay results from IntAct's records for PubMed 17158164.

B1: TATA-box-binding protein (Homo sapiens), P20226 (parent)
chain: MDQNNSLPPYAQGLASPQGAMTPGIPIFSPMMPYGTGLTPQPIQNTNSLSILEEQQRQQQQQQQQQQQQQQQQQQQQQQQQQQQQQQQQQQQQQQAVAAAAVQQSTSQQATQGTSGQAPQLFHSQTLTTAPLPGTTPLYPSPMTPMTPITPATPASESSGIVPQLQNIVSTVNLGCKLDLKTIALRARNAEYNPKRFAAVIMRIREPRTTALIFSSGKMVCTGAKSEEQSRLAARKYARVVQKLGFPAKFLDFKIQNMVGSCDVKFPIRLEGLVLTHQQFSSYEPELFPGLIYRMIKPRIVLLIFVSGKVVLTGAKVRAEIYEAFENIYPILKGFRKTT
partner: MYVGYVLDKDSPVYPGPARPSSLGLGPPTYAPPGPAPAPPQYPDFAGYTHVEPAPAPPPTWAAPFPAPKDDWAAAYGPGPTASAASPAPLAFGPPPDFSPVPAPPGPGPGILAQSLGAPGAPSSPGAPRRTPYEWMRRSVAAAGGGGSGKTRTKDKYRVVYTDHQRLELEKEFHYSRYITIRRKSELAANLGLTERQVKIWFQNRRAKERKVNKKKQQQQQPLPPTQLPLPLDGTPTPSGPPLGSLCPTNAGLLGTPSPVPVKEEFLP

Variants of: B1
Settings: with cdx1_mouse Cdx1, P18111

Row | Variant | effect of a mutation on the interaction
1 | MDQNNSLPPYAQGLASPQGAMTPGIPIFSPMMPYGTGLTPQPIQNTNSLSILEEQQRQQQQQQQQQQQQQQQQQQQQQQQQQQQQQQQQQQQQQQAVAAAAVQQSTSQQATQGTSGQAPQLFHSQTLTTAPLPGTTPLYPSPMTPMTPITPATPASESSGIVPQLQNIVSTVNLGCKLDLKTIALRARNAEYNPKRFAAVIMRIREPRTTALIFSSGKMVCTGAKSEEQSRLAARKYARVVQKLGFPAKFLDFKIQNMVGSCDVKFPIRLEGLVLTHQQFSSYEPELFPGLFYRMIKPRITLVIFVSGKVVLTGAKVRAEIYEAFENIYPILKGFRKTT [I292F;V301T;L303V] | with no effect
